This is an account of results in US20190351049A1 (Regeneron, published 2019).

The target in assay [1] is T1, MERS RBD-hFc (MERS-CoV (isolate EMC/2012)). Briefly: ELISA on coated MERS RBD-hFc, hybridoma supernatant 1:50, absorbance at 450 nm.
Assay [2] addresses T1, MERS RBD-hFc. The experiment in a line: SPR Biacore, captured mAb, 25 C.
Assay [3] deals with T1, MERS RBD-hFc. The experiment in a line: SPR Biacore, captured mAb, 37 C.
The target in assay [4] is T1, MERS RBD-hFc. The experiment in a line: SPR (Biacore), hybridoma supernatant antibody captured, MERS RBD-hFc as analyte.

B1: H2aM15270N (antibody, V domains shown)
VH: EVQLLESGGGLEQPGGSLRLSCAASGFTFSSYAMIWVRQAPGKGLEWVSTISGSGVNTYYADSVKGRFTISRDNSKNTLHLQMNSLRAEDTAVYHCAKEGLDCANGVCYNYYGMDVWGQGTTVTVSS
VL: DIQMTQSPSSLSASVGDRVTITCRASQSINSFLNWYHQKPGKAPKFLIYSASNLQSGVPSRFSGSGSGTDFTLTISSLQPEDFSTYYCQQSYSIPLTFGGGTKVEIK
Turning to B1, the “ELISA Binding” value in the assay with MERS RBD-hFc [1] was found to be 2.04. In the assay with MERS RBD-hFc [2], the dissociation constant (Kd) worked out at 0.776 nM, the koff stood at 0.000605 s⁻¹, the kon stood at 779000 M⁻¹ s⁻¹ and the t1/2 was 19 min. Besides, in the assay with MERS RBD-hFc [3], the Kd is 0.651 nM, the koff was 0.00114 s⁻¹, the kon turned out to be 1.75e+06 M⁻¹ s⁻¹ and the t1/2 was 10 min. Also, in the assay with MERS RBD-hFc [4], the dissociation constant Kd was found to be 1.79 nM and the t½ stood at 17.3 min.

B2: H1M15267N (antibody, V domains shown)
VH: QVQLQESGPGLVKPSETLSLTCTVSGGSISSYYWSWIRQPPGKGLEWIGYIYYSGSPNYNPSLKSRVTISVDTSKNQFSLKLTSVTAADTAVYYCARSLNWGPPFDYWGQGTLVTVSS
VL: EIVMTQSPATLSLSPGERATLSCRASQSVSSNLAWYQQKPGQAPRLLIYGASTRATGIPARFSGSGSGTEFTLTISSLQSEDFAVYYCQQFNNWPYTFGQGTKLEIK
With B2, in the assay with MERS RBD-hFc [1], the “ELISA Binding” value stood at 2.62. Further, in the assay with MERS RBD-hFc [2], the equilibrium dissociation constant (Kd) was found to be 0.181 nM, the koff is 0.000153 s⁻¹, the kon came out at 843000 M⁻¹ s⁻¹ and the t1/2 was determined as 75 min. In the assay with MERS RBD-hFc [3], this molecule displayed a Kd of 0.314 nM, a koff of 0.000745 s⁻¹, a kon of 2.37e+06 M⁻¹ s⁻¹ and a t1/2 of 16 min. Moreover, in the assay with MERS RBD-hFc [4], binding was characterised by a dissociation constant (Kd) of 0.328 nM and the t½ worked out at 94.1 min.

B3: H1M15290N (antibody, V domains shown)
VH: QVQLVQSGAEVKKPGSSVKVSCKASGGTFSTYAISWVRQAPGQGLEWMGGIIPFFGTANYAQKFQGRVTITTDESTSTAYMELSSLRSEDTAVYYCAREGTYYDSLTGYYTHYYRMDVWGQGTTVTVSS
VL: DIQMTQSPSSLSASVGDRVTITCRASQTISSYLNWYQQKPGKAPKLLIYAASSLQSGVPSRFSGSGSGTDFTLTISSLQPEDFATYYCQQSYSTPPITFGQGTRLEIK
Turning to B3, in the assay with MERS RBD-hFc [1], the “ELISA Binding” value came to 2.76. In the assay with MERS RBD-hFc [2], this molecule yielded a Kd of 0.438 nM, a koff of 0.000211 s⁻¹, a kon of 482000 M⁻¹ s⁻¹ and a t1/2 of 55 min. In the assay with MERS RBD-hFc [3], this molecule came in with a Kd of 1.48 nM, a koff of 0.000984 s⁻¹, a kon of 666000 M⁻¹ s⁻¹ and a t1/2 of 12 min. In the assay with MERS RBD-hFc [4], this molecule came in with a Kd of 0.778 nM and a t½ of 80.7 min.

B4: H2bM15292N (antibody, V domains shown)
VH: QVQLVQSGAEVKKPGSSVKVSCKASGGTFNNYAISWVRQAPGQGLEWMGGIIPFFGTTNYAQKFQDRVTITSDDSTITAYMELSRLRSEDTAVYYCARDEPRRDGYNYYHYYYMDVWGQGTTVTVSS
VL: DIQMTQSPSSLSASVGDRVTITCRASQSINSYLNWYQQKPGKAPNLLIYAASSLQSGVPSRFSGSGSGTDFTLTISSLHPEDFATYYCQQSYSTPPITFGQGTRLEIK
On to B4, for which, in the assay with MERS RBD-hFc [1], the “ELISA Binding” value stood at 2.78. In the assay with MERS RBD-hFc [2], this molecule displayed a Kd of 0.34 nM, a koff of 0.000155 s⁻¹, a kon of 457000 M⁻¹ s⁻¹ and a t1/2 of 75 min. In the assay with MERS RBD-hFc [3], this molecule showed a Kd of 0.963 nM, a koff of 0.000524 s⁻¹, a kon of 544000 M⁻¹ s⁻¹ and a t1/2 of 22 min. Besides, in the assay with MERS RBD-hFc [4], the Kd was 0.593 nM and the t½ was determined as 67.8 min.

B5: H2aM15272N (antibody, V domains shown)
VH: QVRLVQSGAEVKKPGSSVKVSCKASGDTFSSYAISWVRQAPGQGLEWMGGIIPFFVTTTYAQNFQGRVTITTDESTRTAYMELSSLRSEDSAVYYCARDRPCISSAGTRYHYCVMDVWGQGTTVTVSS
VL: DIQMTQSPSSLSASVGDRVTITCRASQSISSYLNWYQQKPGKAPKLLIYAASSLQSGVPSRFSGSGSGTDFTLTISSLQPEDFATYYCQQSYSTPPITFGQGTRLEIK
As to B5, the “ELISA Binding” value with MERS RBD-hFc [1] was 2.52. Also, in the assay with MERS RBD-hFc [2], the Kd was 0.443 nM, the koff came to 0.000733 s⁻¹, the association rate constant (kon) was 1.65e+06 M⁻¹ s⁻¹ and the t1/2 worked out at 16 min. In the assay with MERS RBD-hFc [3], this molecule yielded a Kd of 0.316 nM, an off-rate (koff) of 0.000634 s⁻¹, an association rate constant (kon) of 2e+06 M⁻¹ s⁻¹ and a t1/2 of 18 min. In the assay with MERS RBD-hFc [4], this molecule yielded a Kd of 2.72 nM and a t½ of 9.5 min.

B6: H1M15280N (antibody, V domains shown)
VH: EVQLLESGGGLVQPGGSLRLSCAASGFTFSSYAMSWVRQAPGKGLEWVSAISGSGSSTYYADSVKGRFTISRDNSKNTLFLQMNSLRAEDTAVYYCAEGGDVDFDYWGQGTLVTVSS
VL: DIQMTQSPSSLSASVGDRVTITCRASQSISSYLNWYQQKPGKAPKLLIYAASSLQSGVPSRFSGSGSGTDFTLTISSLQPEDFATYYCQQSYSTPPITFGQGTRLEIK
For the molecule B6, the “ELISA Binding” value with MERS RBD-hFc [1] worked out at 2.75. In the assay with MERS RBD-hFc [2], this molecule returned an equilibrium dissociation constant (Kd) of 18.5 nM, an off-rate constant (koff) of 0.00525 s⁻¹, a kon of 283000 M⁻¹ s⁻¹ and a t1/2 of 2.2 min. In the assay with MERS RBD-hFc [3], the Kd is 13.2 nM, the off-rate constant (koff) came out at 0.00657 s⁻¹, the kon came to 497000 M⁻¹ s⁻¹ and the t1/2 stood at 1.8 min. Moreover, in the assay with MERS RBD-hFc [4], the Kd worked out at 6.53 nM and the t½ was found to be 7.4 min.

B7: H2aM15279N (antibody, V domains shown)
VH: EVQLLESGGGLVQTGGSLRLSCAASGFTFSNYAMSWVRQAPGKGLEWVSAISDRGGSIYYADSVKGRFTISRDNSKNTKYLQMDSLRAEDTAVYYCAQDRGFGVFDYWGQGTLVTVSS
VL: DIQMTQSPSSLSASVGDRVTITCQASQDIGNYLNWFQQRPGKAPNLLIYGASNLETGVPSRFSGGGSGTDFTFTISSLQPEDIATYFCQQYDNLPFTFGPGTKVEIK
On to B7, for which the “ELISA Binding” value with MERS RBD-hFc [1] came out at 2.18. Further, in the assay with MERS RBD-hFc [2], the Kd is 0.102 nM, the koff was 8.91e-05 s⁻¹, the kon is 870000 M⁻¹ s⁻¹ and the t1/2 is 130 min. In the assay with MERS RBD-hFc [3], this molecule gave a dissociation constant (Kd) of 0.32 nM, a koff of 0.000445 s⁻¹, a kon of 1.39e+06 M⁻¹ s⁻¹ and a t1/2 of 26 min. Moreover, in the assay with MERS RBD-hFc [4], the Kd was 0.266 nM and the t½ was 96 min.

B8: H1M15289N (antibody, V domains shown)
VH: QVQLQESGPGLVKPSETLSLTCTVSGGSISSYYWSWIRQPPGKGLEWIGYIYYSGSANYNPSLKSRVTISVDTSKNQFSLKLSSVTAADTAVYYCVRDRDLLLDHWGQGTLVTVSS
VL: EIVMTQSPATLSVSPGKRATLSCRASQSVSSNLAWYQQKPGQAPRLLIYGASTRTTGFPARFSGSGSGTDFTLTISSLQSEDFAVYYCQQYNNWPYTFGQGTMLEIK
Regarding B8, the “ELISA Binding” value with MERS RBD-hFc [1] was 2.73. Further, in the assay with MERS RBD-hFc [2], the Kd is 0.21 nM, the koff amounted to 4.41e-05 s⁻¹, the kon is 210000 M⁻¹ s⁻¹ and the t1/2 amounted to 262 min. Besides, in the assay with MERS RBD-hFc [3], the affinity, expressed as Kd, was 0.275 nM; the koff is 0.000126 s⁻¹; the kon was 459000 M⁻¹ s⁻¹; the t1/2 stood at 92 min. Further, in the assay with MERS RBD-hFc [4], binding was put at a Kd of 0.669 nM and the t½ was at least 115 min.

B9: H2aM15287N (antibody, V domains shown)
VH: QLQLQESGPGLVKPSETLSLTCTVSGGSISSGNYYWGWIRQPPGKGLEWFGTIYYSGSTYYNPSLKSRVTISVDTSKNQFSLKLSSVTAADTAVYYCARRAAVGHFDYWGQGTLVTVSS
VL: DIQMTQSPSTLSASVGDRVTITCRASQSISTWLAWYQQKPGKAPKLLIYEASSLESGVPSRFSGSGFGTEFTLTISRLQPDDFATYFCQQYNTYWTFGQGTKVEIK
In the case of B9, the “ELISA Binding” value with MERS RBD-hFc [1] turned out to be 2.53. Besides, in the assay with MERS RBD-hFc [2], binding was characterised by a dissociation constant (Kd) of 6.98 nM, the koff came out at 0.000442 s⁻¹, the kon amounted to 63300 M⁻¹ s⁻¹ and the t1/2 came out at 26 min. In the assay with MERS RBD-hFc [3], this molecule registered a Kd of 10.9 nM, a koff of 0.00189 s⁻¹, a kon of 174000 M⁻¹ s⁻¹ and a t1/2 of 6 min. In addition, in the assay with MERS RBD-hFc [4], the Kd is 0.245 nM and the t½ was at least 115 min.
